Measurements taken from paper PMC4004541, “PEG-Like Nanoprobes: Multimodal, Pharmacokinetically and Optically Tunable Nanomaterials” (PLoS ONE, 2014).

Columns and labels:
[1] = Quantum yield of fluorochrome-bearing peptides and PN's; format: physicochemical; settings: means±1 S.D.
From the text: (The p values showing significances are in Figure S2 in File S1). […] PEG attachment increased quantum yields in all cases, but as discussed below the magnitude of PEG generated improvement varied with the fluorochrome chosen. A mechanism for the PEG improvement of quantum yield is fluorochrome shielding, or the blocking of fluorochrome-fluorochrome interactions that result in quenching.
However, the magnitude of these benefits varied with the fluorochrome selected. […] Previous studies indicated PEGylated, fluorochrome-bearing peptides have absorption spectra in PBS similar to their unstacked absorption spectra in methanol. […] It appears that longer wavelength fluorochromes have stronger fluorochrome/fluorochrome stacking interactions, which result in more quenching, which is blocked by PEG and which gives rise to larger increases in quantum yield.

[2] = Probe size (volume) by FPLC calibrated with globular protein standards; format: physicochemical; settings: for Volume FPLC, globular protein equivalent molecular volume: Superdex 200 10/300GL, 0.05 M sodium phosphate, 0.1 M NaCl (0.1% Tween, pH 7.2), 0.8 ml/min, calibrated with globular protein standards; for Volume FPLC Dia. (diameter): globular protein equivalent volume from FPLC converted to spherical diameter by formula (ref 15)
From the text: FPLC chromatograms are shown for PN’s bearing the IR-783 fluorochrome with PEG’s ranging from 2 to 40 kDa ( Figure 2A ). FPLC was calibrated with globular protein standards, and globular protein equivalent molecular volumes (in kDa) were obtained ( Table 1 , column 5). Next, these globular protein equivalent molecular volumes were converted to PN diameters in nm using the relationship: [drawing 1] where M is the molecular weight of a globular protein expressed in daltons. PN diameters ranged from 3.0 to 11.7 nm, which means PN’s can be smaller or larger than albumin (MW = 67 kDa; diameter = 5.4 nm, by the formula above). Thus Table 1 column 5 gives the PN volumes obtained from FPLC expressed in two ways: (i) as the molecular weight in kDa of globular proteins with equivalent volumes, permitting size comparison of PN’s to proteins, and, (ii) as spherical diameters (“Dia.”) in nm, permitting size comparisons of a PN to relative to other nanomaterials. We confirmed the sizes obtained with FPLC by measuring the size of PN(783)11.7 by dynamic light scattering (11.7 nm).
The mass spec of low molecular weight (MW) materials were obtained by MS-ESI Micromass (Waters) and high MW molecules were determined through MALDI-TOF analyses at the Tufts University Core Facility. RP-HPLC (Varian ProStar detector and delivery modules) employed an eluant A (0.1% TFA/water) and eluant B (0.1% TFA and 9.9% water in acetonitrile). Probe size (volume) was determined by FPLC using an ÄKTA Purifier 10 and SuperdexTM 200 10/300GL column (GE Healthcare) with a running buffer of 0.05 M sodium phosphate, 0.1 M NaCl (0.1% Tween, pH 7.2) and flow rate of 0.8 ml/min. Standards (GE Healthcare) were Ferritin, Ribonuclease A, Carbonic Anhydrase, and Conalbumin and Blue Dextran 2000. To obtain probe volumes, Mr (apparent molecular weight based on size exclusion retention) was plotted versus Kav. [drawing 7] , Vt = total volume, Ve = elution volume, Vo = void volume.
PN and peptide characterization: The mass spec of low molecular weights (MW) were obtained by MS-ESI Micromass (Waters) and high MW molecules were determined through MALDI-TOF analyses at the Tufts University Core Facility. RP-HPLC (Varian ProStar detector and delivery modules) employed an eluant A (0.1% TFA /water) and eluant B (0.1% TFA and 9.9% water in acetonitrile). […] Standards (GE Healthcare) were Ferritin, Ribonuclease A, Carbonic Anhydrase, and Conalbumin and Blue Dextran 2000. To obtain probe volumes, Mr (apparent molecular weight based on size exclusion retention) was plotted versus Kav. [picture] , Vt = total volume, Ve = elution volume, Vo = void volume.

[3] = test system: HT-29 cells; assay: Non-specific binding (NSB) to HT-29 cells by FACS; format: cell-based, human; settings: 100 μL of nanoprobes (2 μM) added to 100 μl 2% FBS/DPBS, 30 min at 37 °C, means±1 S.D.
From the text: We next examined the non-specific binding (NSB) of PN’s to HT-29 cells based on the assumption that NSB minimization will correlate with a desirable minimization of post-IV injection retention. As noted above, after diagnostic drugs generate their added information, retention can only increase the risks of delayed toxicity. The attachment of PEG decreased the non-specific binding (NSB) to HT-29 cells, scored as the percent of cells above the cutoff for unstained cells seen with FACS ( Table 1 , column 7).
PN and peptide binding to cells (effect of PEGylation on NSB): HT-29, a human colon carcinoma cell line, was from the American Tissue Culture Collection and maintained according to their instructions. Cells were seeded on 24-well plates at 5X10^5 cells/well in culture medium (RPMI 1640 with 10% FBS) the day before the assay. The day of assay, medium was removed, wells rinsed twice with DPBS (+Ca, +Mg), and 100 μl of 2% FBS / DPBS (+Ca, +Mg) added. 100 μL of Nanoprobes (2 μM) in DPBS (+Ca, +Mg) was added to cells and incubated for 30min at 37 °C. (Probe concentrations were determined spectrophotometrically (783 nm, extinction coefficient of 314 471 cm^-1 M^-1 for IR-783; 497 nm, extinction coefficient of 68 000 cm^-1 M^-1 for Fluorescein; 545 nm, extinction coefficient of 150 000 cm^-1 M^-1 for Cy3). Cells were detached by Trypsin/EDTA and assayed for fluorescence by FACS (BD 7 laser LSR2 for nanoprobes with IR-783; BD 3 laser LSR2 for nanoprobes with Fluorescein or Cy3).
Figure S4: Effect of PEGylation on non-specific binding to cells by single channel FACS. […] Arrows indicates the cutoff for unstained cells.

[4] = mouse, in vivo; for Alpha half-life / Beta half-life / k elim half-life / k perm half-life / k vas return half-life: iv

Substance | Quant. Yield [1] | Volume FPLC, globular protein equivalent molecular volume [2] | Volume FPLC Dia. (diameter) [2] | Cell NSB: percent of HT-29 cells above the cutoff for unstained cells [3] | k perm expressed as a half-life [4] | Alpha half-life [4] | Beta half-life [4] | k elim half-life [4] | k perm half-life [4] | k vas return half-life [4]
(DOTA)Lys(PEG 5 kDa)-Cys(IR-783) [PN(783)4.3] | 0.16±0.03 | 35.2 kDa | 4.3 nm | 20±1% | 23.7 min | 7.8 min | 1.64 h | 1.01 h | 24 min | 12 min
(DOTA)Lys(PEG 30 kDa)-Cys(Fl) [PN(497)10.0, PEG-like Nanoprobe: 30 kDa PEG, fluorescein, DOTA peptide] | 0.60±0.08 | 435 kDa |  | 0.1% ±0.1% |  |  |  |  |  | 
(DOTA)Lys(PEG 30 kDa)-Cys(IR-783) [PN(783)10.0] | 0.16±0.04 | 435.4 kDa | 10.0 nm | 18±1% |  | 30.6 min | 7.0 h | 4.2 h | 61.2 min | 73.8 min
